Test results published in patent US11629364B2, “Methods for synthesizing anticoagulant polysaccharides” (OPTIMVIA, LLC, priority 2019, dated 2023).

Assay: 3OST activity: 3-O sulfated products detected by LCMS after lyase digestion
Format: biochemical
Conditions: procedures of Example 5 and/or Example 6; expected
Experimental: A study was conducted in accordance with embodiments of the present disclosure to confirm 3OST activity of enzymes comprising the amino acid sequence of SEQ ID NO: 24, SEQ ID NO: 26, or SEQ ID NO: 28 by detecting the presence of 3-O sulfated polysaccharide products as a result of their sulfotransfer reaction, using a reaction, using a similar LCMS procedure as in Example 3, except that the sulfo acceptor polysaccharide was commercially-available heparin (CAS code: 9041-08-1, available from Millipore Sigma). Even though the unmodified heparin contains ˜3.5% (w/w) of 3-O sulfated glucosamine residues, about ˜60% of the glucosamine residues are N,6-sulfated and are adjacent to a 2-O sulfated hexuronic acid residue, as in Formula X. Consequently, these N,6-sulfated glucosamine residues can still be 3-O sulfated.

Row | Molecule | 3OST activity: N,2,3,6-HS products by MS and/or NMR
1 | SEQ ID NO: 56: full-length mutant of isoform 5 of the mouse 3OST enzyme, SEQ ID NO: 24 mutations (protein, Amino acid sequence encoding for engineered arylsulfate-dependent 3-O-sulfotransferase variant 8) MLFKQQVWLRQKLLVLGSLAVGSLLYLVARVGSLDRLQPICPVESRFGGAHNQAELPLRALQFKRGLLHEFRKGNSSKEQVHLHDLVQQLPKAIIIGVGHGGTRALLEMLNLHPAVVKASQEIHFFDNDENYAKGIEWYRKKMPFSYPQQITIEKSHSYFITEEVPERIYKMNSSIKLLIIVREPTTRAISAYTHMLEGKERKNKTYYKFEKLAIDPNTCEVNTKYVGVRTSIYTKHLERWLKYFPIEQFHIVDGDRLITEPLPELQLVEKFLNLPPRISQYNLYFNATRGFYCLRFNIIFNKCLAGSKGRIHPEVDPSVITKLRKFFHPFNQKFYQITGRTLNWP | confirm the presence of N,2,3,6-HS products
2 | SEQ ID NO: 57: full-length mutant of isoform 5 of the mouse 3OST enzyme, SEQ ID NO: 26 mutations (protein, Amino acid sequence encoding for engineered arylsulfate-dependent 3-O-sulfotransferase variant 9) MLFKQQVWLRQKLLVLGSLAVGSLLYLVARVGSLDRLQPICPVESRFGGAHNQAELPLRALQFKRGLLHEFRKGNSSKEQVHLHDLVQQLPKAIIIGVGHGGTRALLEMLNLHPAVVKASQEIHFFDNDENYAKGIEWYRKKMPFSYPQQITIEKSHSYFITEEVPERIYKMNSSIKLLIIVREPTTRAISAYTHMLEGKERKNKTYYKFEKLAIDPNTCEVNTKYTGVRTSIYTKHLERWLKYFPIEQFHIVDGDRLITEPLPELQLVEKFLNLPPRISQYNLYFNATRGFYCLRFNIIFNKCLAGSKGRIHPEVDPSVITKLRKFFHPFNQKFYQITGRTLNWP | confirm the presence of N,2,3,6-HS products
3 | SEQ ID NO: 58: full-length mutant of isoform 5 of the mouse 3OST enzyme, SEQ ID NO: 28 mutations (protein, Amino acid sequence encoding for engineered arylsulfate-dependent 3-O-sulfotransferase variant 10) MLFKQQVWLRQKLLVLGSLAVGSLLYLVARVGSLDRLQPICPVESRFGGAHNQAELPLRALQFKRGLLHEFRKGNSSKEQVHLHDLVQQLPKAIIIGVGHGGTRALLEMLNLHPAVVKASQEIHFFDNDENYAKGIEWYRKKMPFSYPQQITIEKSHSYFITEEVPERIYKMNSSIKLLIIVREPTTRAISLGTHLLEVKERKNKTYYKFEKLAIDPNTCEVNTKYTGVRTSIYTKHLERWLKYFPIEQFHIVDGDRLITEPLPELQLVEKFLNLPPRISQYNLYFNATRGFYCLRFNIIFNKCLAGSKGRIHPEVDPSVITKLRKFFHPFNQKFYQITGRTLNWP | confirm the presence of N,2,3,6-HS products
4 | SEQ ID NO: 54: mutant of isoform 1 of the pig 3OST enzyme, SEQ ID NO: 28 mutations (protein, Amino acid sequence encoding for engineered arylsulfate-dependent 3-O-sulfotransferase variant 7) MGVAPNGSAQQLPQTIIIGVGHGGTRALLEMLSLHPDVAAAENEVHFFDWEEHYSHGLGWYLSQMPFSWPHQLTVEKTHSYFTSPKVPERVYSMNPSIRLLLILRDPSERVLSLGTHLFYVHMQKHKPYPSIEEFLVRDGRLNVDYTGLNRSLYHVHMQNWLRFFPLRHIHIVDGDRLIRDPFPEIQKVERFLKLSPQINASNFYFNKTKGFYCLRDSGRDRCLHESKGRAHPQVDPKLLNKLHEYFHEPNKKFFELVGRTFDWH | confirm the presence of N,2,3,6-HS products

Assay: 2OST activity: 2-O sulfated products detected by LCMS after lyase digestion
Format: biochemical
Conditions: procedures of Example 3; expected
Experimental: A study was conducted in accordance with embodiments of the present disclosure to confirm 2OST activity of enzymes comprising the amino acid sequence of SEQ ID NO: 14 or SEQ ID NO: 16 by detecting the presence of 2-O sulfated polysaccharide products formed as a result of their sulfotransfer reaction, using a similar procedure as in Example 2, except that the sulfo acceptor polysaccharide was commercial heparin in which the 2-O sulfate groups had been selectively removed by chemical means (product DSH001/2, available from Galen Laboratory Supplies) and analysis of each of the digested samples containing sulfated products was conducted using mass spectrometry, coupled with SAX-based high performance liquid chromatography (LCMS).
Disaccharides obtained by digesting the 2-O sulfated products using the carbon-oxygen lyases having the amino acid sequence of SEQ ID NO: 30, SEQ ID NO: 31, and SEQ ID NO: 32 and according to the procedure described above in Example 2 were quantified on a Shimadzu LCMS-8050 Triple Quadrupole Liquid Chromatograph Mass Spectrometer. 100 ng of each of the digested samples, diluted in 10 mM ammonium bicarbonate (pH 10). The disaccharides were separated on a Thermo Hypercarb HPLC column (100×2.1 mm, 5 μm). […]

Row | Molecule | 2OST activity: N,2-HS products by MS
5 | SEQ ID NO: 41: mutant of the human 2OST enzyme carrying the SEQ ID NO: 14 mutations (protein, Amino acid sequence encoding for engineered arylsulfate-dependent 2-O-sulfotransferase variant 3) MDEEEDMVIIYNRVPHTASTSFTNIAYDLCAKNKYHVLHINTTKNNPVMSLQDQVRFVKNITSWKEMKPGFYHGHVSYLDFAKFGVKKKPIYINVIRDPIERLVSYYYHLRFGDDYRPGLRRRKQGDKKTFDECVAEGGSDCAPEKLWLQIPFFCGHSSECWNVGSRWAMDQAKYNLINEYFLVGVTEELEDFIMLLEAALPRFFRGATELYRTGKKSHLHKTTEKKLPTKQTIAKLQQSDIWKMENEFYEFALEQFQFIRAHAVREKDGDLYILAQNFFYEKIYPKSN | confirm the presence of N,2-HS products
6 | SEQ ID NO: 42: mutant of the human 2OST enzyme carrying the SEQ ID NO: 16 mutations (protein, Amino acid sequence encoding for engineered arylsulfate-dependent 2-O-sulfotransferase variant 4) MDEEEDMVIIYNRVHRTASHSFTNIAYDLCAKNKYHVLHINTTKGNPVMSLQDQVRFVKNITSWKEMKPGFYHGPVSYLDFAKFGVKKKPIYINVIRDPIERLVSYYYFLRFGSDKRPGLRMRKQGDKKTFDECVAEGGSDCAPEKLWLQIPFFCGHSSECWNVGSRWAMDQAKYNLINEYFLVGVTEELEDFIMLLEAALPRFFRGATELYRTGKKSHLHKTTEKKLPTKQTIAKLQQSDIWKMENEFYEFALEQFQFIRAHAVREKDGDLYILAQNFFYEKIYPKSN | confirm the presence of N,2-HS products
